Source: the supplement of paper PMC9170038

System: MS2 coat protein
Experiment: apparent KD of MS2 coat protein; designed switch direction (-1 OFF switch, 1 ON switch): -1; higher = weaker reporter binding
How it was run: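 Designed RNA switches with common flanks were transcribed on Illumina chips by stalled E. coli RNA polymerase and titrated with SNAP-549-labelled MS2 coat protein, from 0.7 or 1.5 nM doubling to 3 µM, in Tris-HCl pH 7.5 buffer with KCl, MgCl2, BSA, DTT, tRNA and Tween-20. Steps lasted 0.8–1.5 h (lowest) to 10–20 min (highest). Titrations ran without input, with 200 uM small-molecule ligand, or with an oligonucleotide input. Normalised cluster fluorescence was curve-fitted, and apparent KD is the per-design median over clusters.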

[1] = input ligand: microRNA oligo, concentration not stated
[2] = Eterna round: R95, input ligand: microRNA oligo, concentration not stated
[3] = Eterna round: R95, input ligand: FMN 200 uM
[4] = Eterna round: R95, input ligand: none

Sequence	apparent KD of MS2 coat protein (input ligand: FMN 200 uM) [nM]	apparent KD of MS2 coat protein [1] [nM]	apparent KD of MS2 coat protein (input ligand: none) [nM]	apparent KD of MS2 coat protein [2] [nM]	apparent KD of MS2 coat protein [3] [nM]	apparent KD of MS2 coat protein [4] [nM]
UUAAAUCAUGUAGGAUAUGCGUGGCGAAGCUAUGCAGAAGGACAUGAGGAUCACCCAUGUUCUUCGGUCUGCGUACAGAUCGAA [JL ENG1 1.07] (Eterna round: R96, puzzle: Exclusion NG 1)	316	20.6	26.8	–	–	–
UUAACAUGCUGGUGAUCAUACAUGAGGAUCACCCAUGUAACAAGCUUUUUGUUCGUCUUAUAAUUUAAGAUCACCAG [Stov1/7-B1] (Eterna round: R97, puzzle: Sensor, turn-off variant 1)	21.6	–	20.3	–	–	–
UUAAUGUGAGGAUAUCAGGUGUGCUAGCGUACUGGUACAUCUGAGAAGGCACAUGAGGAUCACCCAUGUUUCUU [JL-ex4-3.23 Brourd mod] (puzzle: Exclusion 4)	–	–	–	26.7	–	–
UUAAUUAAUGUAGGAUAUGCAAGGCGAACCUAAGCAGAAGGACAUGUGGAUCACCCAUGUAAUGCGGUCUGCGUACAGAUCGCU [salish99_ex1_NG1_001] (Eterna round: R96, puzzle: Exclusion NG 1)	271	1170	1270	–	–	–
UUAAUUAAUUGCGCAAGAUCACAUGAGGAUCACCCAUGUAUAUAGGAUAUCAGCUCGAUUAGAGCUGAGAAGGAUAUACAGCGC [ExNG3/3-A1] (Eterna round: R96, puzzle: Exclusion NG 3)	711	192	313	–	–	–
UUAAUUAAUUUAUUAGAUCCUCACAUGAGGAUCACCCAUGUGCAGGAUAUCAGCUCGUUUAGAGCUGAGAAGGGCACUAUAAAU [ExNG3/10-B2] (Eterna round: R96, puzzle: Exclusion NG 3)	24.6	41.8	38.1	–	–	–
UUAGAAUUGUUAGGAUAUUAAUUAUUUUUUAGUAUGAUCUACAUGAGGAUCACCCAUGUUAAAUAUAAGAAGGAACGUUAUAUU [JR_ExcNG2_Sub096] (Eterna round: R96, puzzle: Exclusion NG 2)	–	49.9	–	–	–	–
UUAGCGUAUGUAAGGAUAUGCUGGUCUAAUGAUCAGCAGAAGGUACAUGAGGAUCACCCAUGUGGAUUCGUUAU [Mod of JL 8 - Jieux - Brourd's mod of Exclusion 4] (Eterna round: R97, puzzle: Brourd's mod of Exclusion 4)	327	–	30	–	–	–
UUAGGCUCUGGUUCGUAUUACAUGAGGAUCACCCAUGUGGCCAAGUGAGUUGGGCCGGUCAUGAUUUUGCUCGUUAU [Eternabot (L2) Solution 13] (Eterna round: R97, puzzle: Sensor, turn-off variant 1)	48.3	–	59.4	–	–	–
UUAGUAUAGCAAGGAUAUGUUUAUGUAUAGUUGCCUCUUACAUGAGGAUCACCCAUGUUUAACUUACAGAAGGUGCAAUGAUUU [JR_ExcNG2_Sub033] (Eterna round: R96, puzzle: Exclusion NG 2)	279	108	137	–	–	–
UUAGUGUGAGGAUAUGGUAAAGAUAAGAUGAUGAAAGAACUCCAGAAGGCACAUGAGGAUCACCCAUGUAGAUU [Mat - Exclusion 4 - Mod of JL - D25] (puzzle: Exclusion 4)	–	–	–	24.2	53.5	24.2
UUAUAACAUGUAGGAUAUGCGUGGCGAAGCUAUGCAGAAGGACAUGAGGAUCACCCAUGUUCCUGCGUCCGCGUACGGAUGCAA [JL Eng1 1.21 mod 1] (Eterna round: R96, puzzle: Exclusion NG 1)	34.1	14.1	14.3	–	–	–
UUAUAUAAUGUGAGGAUAUGCUGGUCCUUGGAUCAGCAGAAGGCACAUGAGGAUCACCCAUGUAGUAAAUUUUA [JL bmx4 3.02] (puzzle: Brourd's mod of Exclusion 4)	–	–	–	17.9	–	–
UUAUUAUAUGUAGGAUAUGCAUAUUAUUAUUAUGCAGAAGGACAUGAGGAUCACCCAUGUAUAUUGUUGUUGUAUAUUAUAUAU [Title] (Eterna round: R96, puzzle: Exclusion NG 1)	–	20.9	–	–	–	–
UUAUUAUAUGUAGGAUAUGCGUAUUAUUGUUAUGCAGAAGGACAUGAGGAUCACCCAUGUAUAUUAUUGUUAUAUAUUAUAUAU [Title] (Eterna round: R96, puzzle: Exclusion NG 1)	50.2	19.3	29.3	–	–	–
UUAUUUAGUGUGAGGAUAUGCUGGUCCAUAGAUCAGCAGAAGGCACAUGAGGAUCACCCAUGUAAUAUAUUAAU [Mat - Exclusion 4 - JL Mod - D32] (puzzle: Brourd's mod of Exclusion 4)	–	–	–	25.2	–	–
UUAUUUUUUGAGGAUAUGCGACGUUUUUUCGUCGUAGAAGGCGAUACAUGAGGAUCACCCAUGUUUAUGGGCAU [LRO-Ex6-13] (puzzle: Exclusion 6)	–	–	–	73.8	–	–
UUCCAGACAGGAUAUCUAGUGAGCAACAUGAGGAUCACCCAUGUGACCAUCACCGCCCGCAGAGAAGGGUCAACAG [Inbilaus] (puzzle: Exclusion 5)	–	–	–	41.1	55.4	40.2
UUCCGACAUGAGGAUCACCCAUGUAAGGAUAUGCACUAGAGGACAAACCCUCUUAACGGCAGAAGGUGCAGGGA [Solaleisra] (Eterna round: R97, puzzle: Exclusion 1)	40.9	–	18	–	–	–
UUCCUCUUAACAUGAGGAUCACCCAUGUAUUAUUUGGUAAUUGAGGAUAUAUUUUUAAUGUUUAUAUAGAAGGCAAAUACAGUU [JR_ExcNG3_Sub094] (Eterna round: R96, puzzle: Exclusion NG 3)	–	36.1	–	–	–	–
UUCGAGGCAGGAUAUGCGUAGCCACGGAGGAUCACCAAGUAACAUGAGGAUCACCCAUGUAGAAGGGCUAGAGC [Eternabot (L1) Solution 26] (Eterna round: R97, puzzle: Exclusion 2)	60.1	–	76.4	–	–	–
UUCGUGCAGCUUUGCUGUACGAGUACAUGAGGAUCACCCAUGUAGGAUAUGGUACGCUUUGCGUGCCAGAAGGACGUGCGUUAG [salish99_ExNG3_r04_002] (Eterna round: R96, puzzle: Exclusion NG 3)	73.4	34.1	42.1	–	–	–
UUCGUGCAGCUUUGCUGUACGCGUACAUGAGGAUCACCCAUGUAGGAUAUGGUAGGCAAAGCUUACUAGAAGGAUAGAGUGAUC [Mat - Exclusion NG 3 - Mod of JL - D74] (Eterna round: R96, puzzle: Exclusion NG 3)	277	92.8	122	–	–	–
UUCUGGACAGGAUAUGUACUUGAGCACUUGAGGAUCACCCAAGUCUUCAAGUACUCAGGCACAGAAGGGUUAAUUU [jl-ex5.4.66 ViennaUCT mod] (Eterna round: R97, puzzle: Exclusion 5)	58.9	–	25.4	–	–	–
UUCUUCUCUGUUAGGAUAUUCUCCGCAGAUGCCUGGAAGAAGGGACAUGAGGAUCACCCAUGUAGUGUAAGCUA [Eternabot (L2) Solution 58] (Eterna round: R97, puzzle: Brourd's mod of Exclusion 4)	40.6	–	62.8	–	–	–
